To fix the notation:
B1: CMRF35-like molecule 5 (Homo sapiens), Q6UXZ3 (parent)
chain: MWLSPSLLLLILPGYSIAAKITGPTTVNGSEQGSLTVQCAYGSGWETYLKWRCQGADWNYCNILVKTNGSEQEVKKNRVSIRDNQKNHVFTVTMENLKRDDADSYWCGTERPGIDLGVKVQVTINPGTQTAVSEWTTTTASLAFTAAATQKTSSPLTRSPLKSTHFLFLFLLELPLLLSMLGTVLWVNRPQRRS
B2: High affinity immunoglobulin epsilon receptor subunit gamma (Homo sapiens), P30273 (parent)
chain: MIPAVVLLLLLLVEQAAALGEPQLCYILDAILFLYGIVLTLLYCRLKIQVRKAAITSYEKSDGVYTGLSTRNQETYETLKHEKPPQ
partner: B1 chain

One experiment covers variants of B1. The following applies: with fcerg_human FCER1G, P30273.
Regarding E173A, the “effect of a mutation on the interaction” value is listed as “with no effect”.

In a further experiment the parent is B2. Conditions: with clm5_human CD300LD, Q6UXZ3.
In the case of D29A, the “effect of a mutation on the interaction” value is listed as “decreasing interaction strength”.

The record behind these values is IntAct's records for PubMed 22291008.
